# B1: L-fucose dehydrogenase BmulJ_04919 from Burkholderia multivorans ATCC 17616 (enzyme, UniProt A0A0H3KNE7 1-258, looked up)
# chain: MDLNLQDKVVIVTGGASGIGGAISMRLAEERAIPVVFARHAPDGAFLDALAQRQPRATYLPVELQDDAQCRDAVAQTIATFGRLDGLVNNAGVNDGIGLDAGRDAFVASLERNLIHYYAMAHYCVPHLKATRGAIVNISSKTAVTGQGNTSGYCASKGAQLALTREWAVALREHGVRVNAVIPAEVMTPLYRNWIATFEDPEAKLAEIAAKVPLGRRFTTPDEIADTAVFLLSPRASHTTGEWLFVDGGYTHLDRALV
# Target: the molecule itself
# Assay: crystal structure
protein,measurement,value
B1,stoichiometry N,4

# Source: PMC3542637 (Biochemistry, 2012)
